Assay results from paper PMC4737144.

Legend:
[1] = test system: Hfq (Escherichia coli); test: EMSA
[2] = test system: Strep-RapZ (Escherichia coli); test: EMSA

Substance: GlmY
- binding signal (fold higher Hfq needed than for GlmZ) [1]: 10
- Kd [2]: 30 nM
